Measurements taken from IntAct's records for PubMed 12642614.

B1: Myosin-2 (Saccharomyces cerevisiae), P19524 (parent)
chain: MSFEVGTRCWYPHKELGWIGAEVIKNEFNDGKYHLELQLEDDEIVSVDTKDLNNDKDQSLPLLRNPPILEATEDLTSLSYLNEPAVLHAIKQRYSQLNIYTYSGIVLIATNPFDRVDQLYTQDMIQAYAGKRRGELEPHLFAIAEEAYRLMKNDKQNQTIVVSGESGAGKTVSAKYIMRYFASVEEENSATVQHQVEMSETEQKILATNPIMEAFGNAKTTRNDNSSRFGKYLEILFDKDTSIIGARIRTYLLERSRLVYQPPIERNYHIFYQLMAGLPAQTKEELHLTDASDYFYMNQGGDTKINGIDDAKEYKITVDALTLVGITKETQHQIFKILAALLHIGNIEIKKTRNDASLSADEPNLKLACELLGIDAYNFAKWVTKKQIITRSEKIVSNLNYSQALVAKDSVAKFIYSALFDWLVENINTVLCNPAVNDQISSFIGVLDIYGFEHFEKNSFEQFCINYANEKLQQEFNQHVFKLEQEEYVKEEIEWSFIEFNDNQPCIDLIENKLGILSLLDEESRLPAGSDESWTQKLYQTLDKSPTNKVFSKPRFGQTKFIVSHYALDVAYDVEGFIEKNRDTVSDGHLEVLKASTNETLINILEGLEKAAKKLEEAKKLELEQAGSKKPGPIRTVNRKPTLGSMFKQSLIELMNTINSTNVHYIRCIKPNADKEAWQFDNLMVLSQLRACGVLETIRISCAGFPSRWTFEEFVLRYYILIPHEQWDLIFKKKETTEEDIISVVKMILDATVKDKSKYQIGNTKIFFKAGMLAYLEKLRSNKMHNSIVMIQKKIRAKYYRKQYLQISQAIKYLQNNIKGFIIRQRVNDEMKVNCATLLQAAYRGHSIRANVFSVLRTITNLQKKIRKELKQRQLKQEHEYNAAVTIQSKVRTFEPRSRFLRTKKDTVVVQSLIRRRAAQRKLKQLKADAKSVNHLKEVSYKLENKVIELTQNLASKVKENKEMTERIKELQVQVEESAKLQETLENMKKEHLIDIDNQKSKDMELQKTIENNLQSTEQTLKDAQLELEDMVKQHDELKEESKKQLEELEQTKKTLVEYQTLNGDLQNEVKSLKEEIARLQTAMSLGTVTTSVLPQTPLKDVMGGGASNFNNMMLENSDLSPNDLNLKSRSTPSSGNNHIDSLSVDRENGVNATQINEELYRLLEDTEILNQEITEGLLKGFEVPDAGVAIQLSKRDVVYPARILIIVLSEMWRFGLTKQSESFLAQVLTTIQKVVTQLKGNDLIPSGVFWLANVRELYSFVVFALNSILTEETFKNGMTDEEYKEYVSLVTELKDDFEALSYNIYNIWLKKLQKQLQKKAINAVVISESLPGFSAGETSGFLNKIFANTEEYTMDDILTFFNSIYWCMKSFHIENEVFHAVVTTLLNYVDAICFNELIMKRNFLSWKRGLQLNYNVTRLEEWCKTHGLTDGTECLQHLIQTAKLLQVRKYTIEDIDILRGICYSLTPAQLQKLISQYQVADYESPIPQEILRYVADIVKKEAALSSSGNDSKGHEHSSSIFITPETGPFTDPFSLIKTRKFDQVEAYIPAWLSLPSTKRIVDLVAQQVVQDGH
partner: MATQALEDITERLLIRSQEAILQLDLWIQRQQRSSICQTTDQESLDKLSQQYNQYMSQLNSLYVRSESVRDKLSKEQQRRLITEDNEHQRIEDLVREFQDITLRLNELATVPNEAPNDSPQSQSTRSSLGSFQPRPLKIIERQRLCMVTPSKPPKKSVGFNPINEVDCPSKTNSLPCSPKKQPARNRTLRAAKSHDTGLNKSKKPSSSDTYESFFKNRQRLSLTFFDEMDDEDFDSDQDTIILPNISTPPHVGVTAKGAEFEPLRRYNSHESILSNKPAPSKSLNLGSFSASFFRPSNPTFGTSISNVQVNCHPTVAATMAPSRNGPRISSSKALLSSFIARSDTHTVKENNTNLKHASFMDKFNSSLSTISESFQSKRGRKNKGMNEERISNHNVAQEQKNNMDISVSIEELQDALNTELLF
B2: vacuole-related protein 17 (Saccharomyces cerevisiae), P25591 (parent)
chain: B1 partner

Variants of: B1
Conditions: with vac17_yeast VAC17, P25591

effect of a mutation on the interaction | Variant
disrupting interaction strength | N1304D
disrupting interaction strength | N1304S

Further lines, the variant ahead of its results:

Variant | effect of a mutation on the interaction
D1297N | disrupting interaction strength
L1301P | disrupting interaction strength
G1248D | disrupting interaction strength

Variants of: B1
Conditions: with vac17_yeast VAC17, P25591
Remark: another data set of the same source

effect of a mutation on the interaction | Variant
decreasing interaction strength | G1248N

Variants of: B1
Conditions: with vac17_yeast VAC17, P25591
Remark: another data set of the same source

effect of a mutation on the interaction | Variant
decreasing interaction strength | G1248D

Variants of: B2
Conditions: with myo2_yeast MYO2, P19524

effect of a mutation on the interaction | Variant
with no effect | I140V
